Reference: publication PMC4822156, “Structural basis for ligand-dependent dimerization of phenylalanine hydroxylase regulatory domain” (Scientific Reports, 2016)

Target: the molecule itself
Assay: SEC-MALS; hTH-RD in the absence of amino acid ligand (Supplementary Fig. S2C)

B1: regulatory domain of human tyrosine hydroxylase (hTH-RD), residues 65-160 (domain or fragment, UniProt P07101 96-191, looked up)
chain: GDPLEAVAFEEKEGKAVLNLLFSPRATKPSALSRAVKVFETFEAKIHHLETRPAQRPRAGGPHLEYFVRLEVRRGDLAALLSGVRQVSEDVRSPAG
notes: tyrosine hydroxylase (TH), human, regulatory domain, residues 65-160; which isoform the numbers count on is told only by GenBank number 88900503; Vector pFB-Lic-Bse; source: insect sf9 cells, purified (as the PAH domains); not shown: His6, N-terminal, cleaved
- stoichiometry N: 2
